Test results from patent US9220746B2, “Compounds and methods for treating bone disorders and controlling weight” (The University of North Carolina at Chapel Hill, priority 2009, dated 2015).

Key:
[1] = test system: PTEN; test: Western blot analysis of PTEN expression; format: cell-based, mouse; conditions: for PTEN concentrations: aortic smooth muscle and bone cells from IGFBP-2 gene deleted mice, exogenous addition
Procedure: FIG. 5. The heparin-binding domain of IGFBP2 suppresses PTEN expression. a and b, Igfbp2^−/− calvarial osteoblasts (COBs) were isolated, and treated with PBS, IGFBP-2 or pegylated heparin-binding domain peptide (PEG-HBD) in MEMα containing 0.1% BSA overnight. Whole cell lysate was collected and expression of PTEN and α-actin was analyzed by Western blot analysis. Expression levels of PTEN were quantified by normalizing to the expression levels of α-actin. c and d. COBs pre-incubated with PBS, IGFBP-2 or PEG-HBD overnight were treated with IGF-I (100 ng/ml) for 15 minutes. Whole cell lysate was collected and expression of pSer473-Akt and Akt was analyzed by Western blot analysis. Expression levels of pSer473-Akt were quantified by normalizing to the expression levels of Akt. Figures shown represent at least 3 independent experiments. Values are expressed as the mean±SEM (n=3-4). Statistical difference was analyzed by Student's t-test. *; <0.001, **; <0.01, ^†; <0.05.
FIG. 9. […] Igfbp2^+/+ calvarial osteoblasts were treated with PBS, control peptide, or heparin-binding domain peptide (HBD-peptide) overnight, and whole cell lysate was collected. PTEN expression was analyzed using western blot analysis (a), and quantitative analysis was performed (b). Values were expressed as the mean±SEM (n=3). Statistical significance was analyzed by ANOVA followed by Bonferroni post-hoc test. ^a; p<0.01 vs. PBS, ^b; p<0.01 vs. control peptide.
To prepare whole cell lysates, cells were solubilized in RIPA buffer^55. For cytosolic fraction, cells were solubilized with hypotonic buffer containing protease and phosphatase inhibitors (10 mM Tris, 0.2 mM MgCl2, pH 7.4) and kept on ice for 10 min. Cell lysates were mixed with sucrose buffer (final concentration; 25 mM Sucrose, 0.1 mM EDTA) and centrifuged at 20,000×g for 1 hour. Supernatant was used as cytosolic fraction. To prepare the membrane fraction, cells were solubilized with PBS containing protease and phosphatase inhibitors. The lysates were frozen at −80° C. for 1 h and thawed at room temperature. After three cycles, they were centrifuged at 13,000×g for 25 min. The pellet was suspended with membrane protein isolation buffer (20 mM Tris-HCl; 150 mM NaCl; 1 mM EDTA; 1 mM EGTA; and 1% Triton X-100, pH 7.5) containing protease and phosphatase inhibitors. Protein concentration was assessed by BCA protein assay kit (Thermo Scientific) and equal amounts of sample were separated by SDS-PAGE and transferred electrophoretically to nitrocellulose membranes. Membranes were blocked in 5% BSA in Tris-buffered saline. […]

[2] = test system: primary mouse preadipocytes; test: Differentiation of primary mouse preadipocytes, oil red O staining; format: cell-based; conditions: peptide 2 ng to 2 ug/ml
Procedure: The maximum effect of the peptide was to inhibit differentiation to a level wherein <20% of the cells were positive. These findings were reconfirmed using primary mouse preadipocytes. 35-50 day old mice were killed and inguinal fat pads were removed aseptically. Fat tissue was washed and dissolved in Hanks basic salt solution containing 0.1% glucose and 2 mg/ml collagenase, (type 3 Worthington) and 4% BSA. Following 15 min digestion at 37°, the tissue was separated by dispersion and pipetting and then filtered through an 80 micron sterile nylon filter. The cells were then plated in DMEM F12 containing 10% fetal calf serum and then centrifuged at 700×g to separate the stromal vascular cells from the adipocytes, which float. The supernatant was discarded and the cell pellet which contained the stromal vascular cells was resuspended in DMEM F12 with 10% FCS and plated at a density of 15,000 cells/cm^2. The medium was aspirated 24 hr later and fresh medium was replaced every 3 days until the cells reached 80-90% confluence. Differentiation was induced by adding serum free medium containing 25 mM glucose, 10 ug/ml transferin, 10 nM T3, 10-7 dexamethasone, 5 ug/ml HDL and 16.7 nM insulin. This was added to cultures that were between […]. […] The IGFBP-2 had been purified from cellular conditioned medium and was determined to be homogenous by amino acid sequence analysis.

[3] = test system: metacarpals; test: Metacarpal culture ex vivo (calcein incorporated area, length, width); format: cell-based, mouse; conditions: 10 days, IGFBP2 200 ng/ml, peptides 2 μg/ml, vs PBS
Procedure: FIG. 2. The heparin binding domain of IGFBP2 enhances periosteal expansion of metacarpals ex vivo. Metacarpals were collected from day 1 male mouse, and treated with osteogenic media with IGFBP2 (200 ng/ml) or the heparin-binding domain peptide (HBD-peptide) (2 μg/ml) in the presence or absence of IGF-1 (20 ng/ml) for 10 days. Bones were labeled with calcein (500 ng/ml) and calcein incorporated area was visualized (a) and longitudinal length of calcein incorporated area was quantified (b). Alcian blue and Von Kossa double staining was performed (c) and length and width of metacarpals were quantified (d). Statistical difference was analyzed by ANOVA followed by Bonferroni post-hoc test. Figures shown represent at least 3 independent experiments. Values are expressed as the mean±SEM (n=3-4). ^a; <0.05 vs PBS, ^b; <0.01 vs PBS, ^c; <0.001 vs PBS, ^d; <0.01 vs HBD, ^e; <0.05 vs IGF-I, ^f; <0.05 vs HBD.
Metacarpals were isolated from Igfbp2^−/− mice at 1-day old and incubated in DMEM containing 0.5% BSA, 50 μg/ml ascorbic acid and 1 mM β-glycerol phosphate for 10 days^54. Stimulants were added to culture media from day 1. At day 10, metacarpals were incubated in media containing calcein (500 ng/ml) for 2 hours for staining of calcium deposition, and images were obtained. Then, bones were fixed with 4% PFA, embedded in paraffin, and processed for Alcian blue and von Kossa double staining.

Row | Molecule | PTEN concentrations [1] | inhibition of adipocyte differentiation [2] | calcein incorporated area of metacarpals ([3]; IGF-1 20 ng/ml) | width (and length) of metacarpals [3] | PTEN expression ([1]; primary calvarial osteoblasts, overnight treatment)
1 | KHHLGLEEPKKLR (IGFBP-2 heparin binding domain-containing peptide sequence) [peptide of SEQ ID NO:1] | could suppress PTEN concentrations | reconfirmed |  |  | 
2 | IGFBP-2: Insulin-like growth factor binding protein-2, 36,000 dalton protein, purified from cellular conditioned medium (protein, UniProt P18065 36-325, looked up) Insulin-like growth …: AEVLFRCPPCTPERLAACGPPPVAPPAAVAAVAGGARMPCAELVREPGCGCCSVCARLEGEACGVYTPRCGQGLRCYPHPGSELPLQALVMGEGTCEKRRDAEYGASPEQVADNGDDHSEGGLVENHVDSTMNMLGGGGSAGRKPLKSGMKELAVFREKVTEQHRQMGKGGKHHLGLEEPKKLRPPPARTPCQQELDQVLERISTMRLPDERGPLEHLYSLHIPNCDKHGLYNLKQCKMSLNGQRGECWCVNPNTGKLIQGAPTIRGDPECHLFYNEQQEARGVHTQRMQ | could suppress PTEN concentrations |  | significantly enhanced | increased the width of metacarpals | markedly suppressed PTEN expression
